The values below come from the supplement of paper PMC10567573.

First the molecules themselves.
B1: INTS3 (parent)
chain: KKREFRFHPIKETVVEEPVDITPY
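Also: lentivirally expressed fusions sorted by FACS into six bins by GFP to DsRed ratio, PSI derived from sequencing read proportions per bin multiplied by bin number.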

The variants in this data set derive from B1. The data set is described as follows: protein stability index of a GFP-peptide fusion (GPS, HEK-293T) (PSI 1-6); higher = more stable. Particulars: c terminus: a fixed tail appended.
As to KKREFRFHPIKQTVVEEPVDITPY, the protein stability index was 2.48.
Under KKREFRFHPIKKTVVEEPVDITPY stands 2.19; under KKREFRFHPIKYTVVEEPVDITPY, 2.
Under KKREFRFHPIKDTVVEEPVDITPY stands 1.87; under KKREFRFHPIKHTVVEEPVDITPY, 2.17; under KKREFRFHPIKLTVVEEPVDITPY, 3.92.
As for KKREFRFHPIKPTVVEEPVDITPY, the figure is 1.92; as for KKREFRFHPIKATVVEEPVDITPY, 1.97.
On to KKREFRFHPIKITVVEEPVDITPY, for which the protein stability index worked out at 2.61.
In the case of KKREFRFHPIKFTVVEEPVDITPY, the protein stability index turned out to be 2.96.
As for KKREFRFHPIKNTVVEEPVDITPY, the figure is 1.86.
With KKREFRFHPIKGTVVEEPVDITPY, the protein stability index came to 2.93.
Under KKREFRFHPIKWTVVEEPVDITPY stands 2.98; under KKREFRFHPIKSTVVEEPVDITPY, 1.56; under KKREFRFHPIKCTVVEEPVDITPY, 2.05.
As for KKREFRFHPIKMTVVEEPVDITPY, the figure is 2.43.
As for KKREFRFHPIKRTVVEEPVDITPY, the figure is 1.94; as for KKREFRFHPIKTTVVEEPVDITPY, 1.39; as for KKRYFRFHPIKETVVEEPVDITPY, 1.81.
KKRCFRFHPIKETVVEEPVDITPY: the protein stability index came to 3.03.
As for KKRRFRFHPIKETVVEEPVDITPY, the figure is 2.86; as for KKRWFRFHPIKETVVEEPVDITPY, 1.41.
Regarding KKRNFRFHPIKETVVEEPVDITPY, the protein stability index is 1.48.
As for KKRSFRFHPIKETVVEEPVDITPY, the figure is 1.33; as for KKRQFRFHPIKETVVEEPVDITPY, 2.36.
As for KKRIFRFHPIKETVVEEPVDITPY, the figure is 2.05; as for KKRMFRFHPIKETVVEEPVDITPY, 2.04.
As for KKRLFRFHPIKETVVEEPVDITPY, the figure is 1.79; as for KKRKFRFHPIKETVVEEPVDITPY, 2.79.
For KKRAFRFHPIKETVVEEPVDITPY, the protein stability index is 2.29.
Under KKRFFRFHPIKETVVEEPVDITPY stands 1.94; under KKRTFRFHPIKETVVEEPVDITPY, 2.07; under KKRVFRFHPIKETVVEEPVDITPY, 1.27.
Under KKRPFRFHPIKETVVEEPVDITPY stands 2.62; under KKRHFRFHPIKETVVEEPVDITPY, 1.9; under KKRGFRFHPIKETVVEEPVDITPY, 1.54.
Under KKRDFRFHPIKETVVEEPVDITPY stands 2.06.
With KKVEFRFHPIKETVVEEPVDITPY, the protein stability index came out at 1.92.
Under KKTEFRFHPIKETVVEEPVDITPY stands 1.73; under KKYEFRFHPIKETVVEEPVDITPY, 2.25; under KKSEFRFHPIKETVVEEPVDITPY, 1.66.
As for KKWEFRFHPIKETVVEEPVDITPY, the figure is 1.44; as for KKQEFRFHPIKETVVEEPVDITPY, 1.89.
KKREFRRHPIKETVVEEPVDITPY: the protein stability index amounted to 4.6.
KKREFREHPIKETVVEEPVDITPY: the protein stability index turned out to be 4.62.
KKREFRWHPIKETVVEEPVDITPY: the protein stability index turned out to be 3.25.
As for KKREFRVHPIKETVVEEPVDITPY, the figure is 4.65; as for KKREFRMHPIKETVVEEPVDITPY, 4.4; as for KKREFRGHPIKETVVEEPVDITPY, 4.71.
Under KKREFRPHPIKETVVEEPVDITPY stands 4.58; under KKREFRAHPIKETVVEEPVDITPY, 4.76; under KKREFRIHPIKETVVEEPVDITPY, 4.23.
As to KKREFRHHPIKETVVEEPVDITPY, the protein stability index amounted to 4.63.
As for KKREFRNHPIKETVVEEPVDITPY, the figure is 4.91; as for KKREFRSHPIKETVVEEPVDITPY, 4.74; as for KKREFRKHPIKETVVEEPVDITPY, 4.39.
On to KKREFRCHPIKETVVEEPVDITPY, for which the protein stability index worked out at 4.26.
Consider KKREFRYHPIKETVVEEPVDITPY, for which the protein stability index worked out at 2.84.
As for KKREFRQHPIKETVVEEPVDITPY, the figure is 4.24; as for KKREFRTHPIKETVVEEPVDITPY, 4.79; as for KKREFRDHPIKETVVEEPVDITPY, 4.43.
Under KKREFRLHPIKETVVEEPVDITPY stands 4.21; under KKREFRFHQIKETVVEEPVDITPY, 2.17.
For the variant KKREFRFHMIKETVVEEPVDITPY, the protein stability index is 2.17.
As for KKREFRFHSIKETVVEEPVDITPY, the figure is 2.04; as for KKREFRFHEIKETVVEEPVDITPY, 3.18; as for KKREFRFHAIKETVVEEPVDITPY, 2.5.
Under KKREFRFHCIKETVVEEPVDITPY stands 2.03; under KKREFRFHRIKETVVEEPVDITPY, 2.3; under KKREFRFHWIKETVVEEPVDITPY, 1.81.
Under KKREFRFHFIKETVVEEPVDITPY stands 2.17.
Consider KKREFRFHYIKETVVEEPVDITPY, for which the protein stability index came out at 1.99.
Under KKREFRFHIIKETVVEEPVDITPY stands 2.18; under KKREFRFHVIKETVVEEPVDITPY, 2.63; under KKREFRFHGIKETVVEEPVDITPY, 2.5.
In the case of KKREFRFHHIKETVVEEPVDITPY, the protein stability index was found to be 2.83.
Under KKREFRFHTIKETVVEEPVDITPY stands 2.42.
As for KKREFRFHKIKETVVEEPVDITPY, the figure is 2.59.
Under KKREFRFHNIKETVVEEPVDITPY stands 3.02; under KKREFRFHDIKETVVEEPVDITPY, 3.8.
KKREFRFHLIKETVVEEPVDITPY: the protein stability index came to 1.9.
As for KKREFRFHPICETVVEEPVDITPY, the figure is 2.15.
As for KKREFRFHPIFETVVEEPVDITPY, the figure is 2.56.
Turning to KKREFRFHPIMETVVEEPVDITPY, the protein stability index is 2.64.
Under KKREFRFHPIVETVVEEPVDITPY stands 2.36.
Under KKREFRFHPINETVVEEPVDITPY stands 1.71; under KKREFRFHPIIETVVEEPVDITPY, 1.85.
In the case of KKREFRFHPIYETVVEEPVDITPY, the protein stability index was determined as 2.7.
In the case of KKREFRFHPIGETVVEEPVDITPY, the protein stability index stood at 2.04.
Under KKREFRFHPISETVVEEPVDITPY stands 2.31; under KKREFRFHPIRETVVEEPVDITPY, 1.88.
For KKREFRFHPIQETVVEEPVDITPY, the protein stability index worked out at 1.82.
As for KKREFRFHPILETVVEEPVDITPY, the figure is 2.72; as for KKREFRFHPITETVVEEPVDITPY, 1.97.
